B1: Kinetochore protein NDC80 homolog (Homo sapiens), O14777 (parent)
chain: MKRSSVSSGGAGRLSMQELRSQDVNKQGLYTPQTKEKPTFGKLSINKPTSERKVSLFGKRTSGHGSRNSQLGIFSSSEKIKDPRPLNDKAFIQQCIRQLCEFLTENGYAHNVSMKSLQAPSVKDFLKIFTFLYGFLCPSYELPDTKFEEEVPRIFKDLGYPFALSKSSMYTVGAPHTWPHIVAALVWLIDCIKIHTAMKESSPLFDDGQPWGEETEDGIMHNKLFLDYTIKCYESFMSGADSFDEMNAELQSKLKDLFNVDAFKLESLEAKNRALNEQIARLEQEREKEPNRLESLRKLKASLQGDVQKYQAYMSNLESHSAILDQKLNGLNEEIARVELECETIKQENTRLQNIIDNQKYSVADIERINHERNELQQTINKLTKDLEAEQQKLWNEELKYARGKEAIETQLAEYHKLARKLKLIPKGAENSKGYDFEIKFNPEAGANCLVKYRAQVYVPLKELLNETEEEINKALNKKMGLEDTLEQLNAMITESKRSVRTLKEEVQKLDDLYQQKIKEAEEEDEKCASELESLEKHKHLLESTVNQGLSEAMNELDAVQREYQLVVQTTTEERRKVGNNLQRLLEMVATHVGSVEKHLEEQIAKVDREYEECMSEDLSENIKEIRDKYEKKATLIKSSEE
partner: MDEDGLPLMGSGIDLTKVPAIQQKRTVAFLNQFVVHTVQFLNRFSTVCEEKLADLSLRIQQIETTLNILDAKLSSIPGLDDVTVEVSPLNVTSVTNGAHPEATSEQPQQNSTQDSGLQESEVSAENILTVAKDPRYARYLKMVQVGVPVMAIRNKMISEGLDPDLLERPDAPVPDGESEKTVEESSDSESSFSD
B2: E3 ubiquitin-protein ligase LNX (Homo sapiens), Q8TBB1 (parent)
chain: MNQPESANDPEPLCAVCGQAHSLEENHFYSYPEEVDDDLICHICLQALLDPLDTPCGHTYCTLCLTNFLVEKDFCPMDRKPLVLQHCKKSSILVNKLLNKLLVTCPFREHCTQVLQRCDLEHHFQTSCKGASHYGLTKDRKRRSQDGCPDGCASLTATAPSPEVSAAATISLMTDEPGLDNPAYVSSAEDGQPAISPVDSGRSNRTRARPFERSTIRSRSFKKINRALSVLRRTKSGSAVANHADQGRENSENTTAPEVFPRLYHLIPDGEITSIKINRVDPSESLSIRLVGGSETPLVHIIIQHIYRDGVIARDGRLLPGDIILKVNGMDISNVPHNYAVRLLRQPCQVLWLTVMREQKFRSRNNGQAPDAYRPRDDSFHVILNKSSPEEQLGIKLVRKVDEPGVFIFNVLDGGVAYRHGQLEENDRVLAINGHDLRYGSPESAAHLIQASERRVHLVVSRQVRQRSPDIFQEAGWNSNGSWSPGPGERSNTPKPLHPTITCHEKVVNIQKDPGESLGMTVAGGASHREWDLPIYVISVEPGGVISRDGRIKTGDILLNVDGVELTEVSRSEAVALLKRTSSSIVLKALEVKEYEPQEDCSSPAALDSNHNMAPPSDWSPSWVMWLELPRCLYNCKDIVLRRNTAGSLGFCIVGGYEEYNGNKPFFIKSIVEGTPAYNDGRIRCGDILLAVNGRSTSGMIHACLARLLKELKGRITLTIVSWPGTFL
partner: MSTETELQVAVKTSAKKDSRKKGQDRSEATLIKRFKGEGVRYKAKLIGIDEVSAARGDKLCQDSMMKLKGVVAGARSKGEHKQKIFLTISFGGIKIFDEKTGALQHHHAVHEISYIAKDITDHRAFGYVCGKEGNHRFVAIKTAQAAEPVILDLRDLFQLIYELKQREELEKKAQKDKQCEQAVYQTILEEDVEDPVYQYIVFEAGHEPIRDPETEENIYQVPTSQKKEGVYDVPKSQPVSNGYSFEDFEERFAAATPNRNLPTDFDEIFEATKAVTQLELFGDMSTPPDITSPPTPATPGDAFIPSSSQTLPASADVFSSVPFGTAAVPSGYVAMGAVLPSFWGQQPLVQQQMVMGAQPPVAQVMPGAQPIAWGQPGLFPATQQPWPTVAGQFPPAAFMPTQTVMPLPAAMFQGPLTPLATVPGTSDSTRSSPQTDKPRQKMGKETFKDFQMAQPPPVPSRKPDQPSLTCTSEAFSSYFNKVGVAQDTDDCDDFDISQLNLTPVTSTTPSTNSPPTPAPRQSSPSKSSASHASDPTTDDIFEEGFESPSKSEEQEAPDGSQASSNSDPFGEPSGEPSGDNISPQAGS
B3: UPF0688 protein C1orf174 (Homo sapiens), Q8IYL3 (parent)
chain: MRSRKLTGAVRSSARLKARSCSAARLASAQEVAGSTSAKTACLTSSSHKATDTRTSKKFKCDKGHLVKSELQKLVPKNDSASLPKVTPETPCENEFAEGSALLPGSEAGVSVQQGAASLPLGGCRVVSDSRLAKTRDGLSVPKHSAGSGAEESNSSSTVQKQNEPGLQTEDVQKPPLQMDNSVFLDDDSNQPMPVSRFFGNVELMQDLPPASSSCPSMSRREFRKMHFRAKDDDDDDDDDAEM
B4: Bcl-2-interacting killer (Homo sapiens), Q13323 (parent)
chain: MSEVRPLSRDILMETLLYEQLLEPPTMEVLGMTDSEEDLDPMEDFDSLECMEGSDALALRLACIGDEMDVSLRAPRLAQLSEVAMHSLGLAFIYDQTEDIRDVLRSFMDGFTTLKENIMRFWRSPNPGSWVSCEQVLLALLLLLALLLPLLSGGLHLLLK
partner: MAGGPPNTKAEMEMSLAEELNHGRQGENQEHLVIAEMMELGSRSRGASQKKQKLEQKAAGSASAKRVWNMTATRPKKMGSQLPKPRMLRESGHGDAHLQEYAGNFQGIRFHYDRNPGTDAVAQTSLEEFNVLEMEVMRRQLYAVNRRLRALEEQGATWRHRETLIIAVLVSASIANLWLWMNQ
B5: Transcription factor 12 (Homo sapiens), Q99081-3 (parent)
chain: MNPQQQRMAAIGTDKELSDLLDFSAMFSPPVNSGKTRPTTLGSSQFSGSGIDERGGTTSWGTSGQPSPSYDSSRGFTDSPHYSDHLNDSRLGAHEGLSPTPFMNSNLMGKTSERGSFSLYSRDTGLPGCQSSLLRQDLGLGSPAQLSSSGKPGTAYYSFSATSSRRRPLHDSAALDPLQAKKVRKVPPGLPSSVYAPSPNSDDFNRESPSYPSPKPPTSMFASTFFMQDGTHNSSDLWSSSNGMSQPGFGGILGTSTSHMSQSSSYGNLHSHDRLSYPPHSVSPTDINTSLPPMSSFHRGSTSSSPYVAASHTPPINGSDSILGTRGNAAGSSQTGDALGKALASIYSPDHTSSSFPSNPSTPVGSPSPLTGTSQWPRPGGQAPSSPSYENSLHSLKNRVEQQLHEHLQDAMSFLKDVCEQSRMEDRLDRLDDAIHVLRNHAVGPSTSLPAGHSDIHSLLGPSHNAPIGSLNSNYGGSSLVASSRSASMVGTHREDSVSLNGNHSVLSSTVTTSSTDLNHKTQENYRGGLQSQSGTVVTTEIKTENKEKDENLHEPPSSDDMKSDDESSQKDIKVSSRGRTSSTNEDEDLNPEQKIEREKERRMANNARERLRVRDINEAFKELGRMCQLHLKSEKPQTKLLILHQAVAVILSLEQQVRERNLNPKAACLKRREEEKVSAVSAEPPTTLPGTHPGLSETTNPMGHM
partner: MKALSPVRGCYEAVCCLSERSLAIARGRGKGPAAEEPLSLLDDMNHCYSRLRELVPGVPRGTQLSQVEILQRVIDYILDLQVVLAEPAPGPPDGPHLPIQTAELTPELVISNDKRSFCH

Variants of: B1
Details: with wasc3_human WASHC3, Q9Y3C0
For A605P, the “effect of a mutation on the interaction” value was “with no effect”. E348D was tested, and the “effect of a mutation on the interaction” value was “with no effect”.

Variants of: B2
Details: with dab1_human DAB1, O75553
R342H was tested, and the “effect of a mutation on the interaction” value was “with no effect”.

Variants of: B3
Details: with ikzf1_human IKZF1, Q13422
Chain of ikzf1_human IKZF1, Q13422 (Q13422 whole entry): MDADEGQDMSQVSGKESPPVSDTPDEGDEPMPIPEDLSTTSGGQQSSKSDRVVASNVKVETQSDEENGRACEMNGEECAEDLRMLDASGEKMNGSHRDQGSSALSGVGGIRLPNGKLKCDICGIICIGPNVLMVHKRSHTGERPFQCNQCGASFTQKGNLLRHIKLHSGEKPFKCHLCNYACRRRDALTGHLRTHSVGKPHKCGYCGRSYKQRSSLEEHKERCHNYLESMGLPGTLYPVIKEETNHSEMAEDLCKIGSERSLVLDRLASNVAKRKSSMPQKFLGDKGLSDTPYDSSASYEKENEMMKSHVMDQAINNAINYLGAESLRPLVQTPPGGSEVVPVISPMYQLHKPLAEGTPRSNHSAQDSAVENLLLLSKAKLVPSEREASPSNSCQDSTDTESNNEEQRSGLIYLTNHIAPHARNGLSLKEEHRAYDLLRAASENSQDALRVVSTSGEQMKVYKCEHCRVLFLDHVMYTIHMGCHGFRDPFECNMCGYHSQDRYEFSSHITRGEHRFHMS
In the case of A81T, the “effect of a mutation on the interaction” value is reported as “with no effect”. In the case of S82A, the “effect of a mutation on the interaction” value is reported as “with no effect”. With V195M the “effect of a mutation on the interaction” value was “with no effect”. R131C was tested, and the “effect of a mutation on the interaction” value was “with no effect”.

Variants of: B4
Details: with fate1_human FATE1, Q969F0
For D69E, the “effect of a mutation on the interaction” value was “with no effect”.

Variants of: B5
Details: with id3_human ID3, Q02535
With N606H the “effect of a mutation on the interaction” value was “with no effect”. Y120C was tested, and the “effect of a mutation on the interaction” value was “with no effect”. With A482V the “effect of a mutation on the interaction” value was “with no effect”.

Reference: IntAct's records for PubMed 31515488
